Experimental data as given in publication PMC3467263, “FXR Controls the Tumor Suppressor NDRG2 and FXR Agonists Reduce Liver Tumor Growth and Metastasis in an Orthotopic Mouse Xenograft Model” (PLoS ONE, 2012).

Biological target: T1, human FXR^aa187–472 fused to GST (human, UniProt Q96RI1-2 187-472)
T1 construct: Detected in the TR-FRET assay by europium-labelled anti-GST; also called human FXR-LBD; hFXR; source: purified
T1 sequence (looked up): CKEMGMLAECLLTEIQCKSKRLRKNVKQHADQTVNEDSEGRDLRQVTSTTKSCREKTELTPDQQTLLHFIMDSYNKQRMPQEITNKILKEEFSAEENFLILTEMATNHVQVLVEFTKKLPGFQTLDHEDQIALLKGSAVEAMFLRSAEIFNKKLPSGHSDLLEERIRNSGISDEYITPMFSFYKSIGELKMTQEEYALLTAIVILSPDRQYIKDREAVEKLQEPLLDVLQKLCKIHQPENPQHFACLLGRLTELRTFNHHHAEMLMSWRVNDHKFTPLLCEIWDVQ
Test: FRET or BRET; homogeneous TR-FRET: biotinylated SRC-1 peptide (0.4 µM), 200 ng streptavidin-allophycocyanin, 6 ng europium-labelled anti-GST and 2.5 ng GST-FXR-LBD in 25 µL of 20 mM Tris/HCl pH 7.5, 5 mM MgCl2, 60 mM KCl, 1 mM DTT, 0.9 g/L BSA; 60 min incubation; FXR agonist (GW4064, PX20606 or PX20350) titrated; duplicates
Settings: both partners purified

B1: biotinylated SRC-1 peptide b-[residues removed]-COOH (peptide)
peptide: CPSSHSSLTERHKILHRLLQEGSPS
HELM: PEPTIDE1{[O=C1N[C@H]2[C@H](CS[C@H]2CCCCC(=O)[*:2])N1].C.P.S.S.H.S.S.L.T.E.R.H.K.I.L.H.R.L.L.Q.E.G.S.P.S}$$$$V2.0
SMILES: CC[C@H](C)[C@H](NC(=O)[C@H](CCCCN)NC(=O)[C@H](Cc1c[nH]cn1)NC(=O)[C@H](CCCNC(=N)N)NC(=O)[C@H](CCC(=O)O)NC(=O)[C@@H](NC(=O)[C@H](CC(C)C)NC(=O)[C@H](CO)NC(=O)[C@H](CO)NC(=O)[C@H](Cc1c[nH]cn1)NC(=O)[C@H](CO)NC(=O)[C@H](CO)NC(=O)[C@@H]1CCCN1C(=O)[C@H](CS)NC(=O)CCCC[C@@H]1SC[C@@H]2NC(=O)N[C@@H]21)[C@@H](C)O)C(=O)N[C@@H](CC(C)C)C(=O)N[C@@H](Cc1c[nH]cn1)C(=O)N[C@@H](CCCNC(=N)N)C(=O)N[C@@H](CC(C)C)C(=O)N[C@@H](CC(C)C)C(=O)N[C@@H](CCC(N)=O)C(=O)N[C@@H](CCC(=O)O)C(=O)NCC(=O)N[C@@H](CO)C(=O)N1CCC[C@H]1C(=O)N[C@@H](CO)C(=O)O
notes: Coupled to streptavidin-allophycocyanin through its biotin in the assay
binding result: binds
